Source: the Human Domainome abundance scans (Beltran et al. 2025)
± gives the uncertainty stated by the source.

test: abundance fitness (aPCA) (normalised: wild type 0, dead -1); higher = more abundant; growth selection in yeast, the domain comes from the species named; details: Homo sapiens

Compared with “Transcriptional activator Myb P174E, P10242”, “Transcriptional activator Myb P174F, P10242” is lower in abundance fitness: -0.02 ± 0.098 for the first, -0.298 ± 0.17 for the second.

“Transcriptional activator Myb P174G, P10242” and “Transcriptional activator Myb P174H, P10242” are within error of each other in abundance fitness: -0.462 ± 0.056 for the first, -0.479 ± 0.12 for the second.

First: Transcriptional activator Myb P174I, P10242
Second: Transcriptional activator Myb P174K, P10242
The abundance fitness of the first is lower: -0.339 ± 0.14 for the first, -0.086 ± 0.11 for the second.

“Transcriptional activator Myb P174L, P10242” and “Transcriptional activator Myb P174M, P10242” are within error of each other in abundance fitness: -0.443 ± 0.082 for the first, -0.329 ± 0.093 for the second.

“Transcriptional activator Myb P174N, P10242” and “Transcriptional activator Myb P174R, P10242” are within error of each other in abundance fitness: -0.255 ± 0.16 for the first, -0.251 ± 0.052 for the second.

“Transcriptional activator Myb P174S, P10242” and “Transcriptional activator Myb P174T, P10242” are within error of each other in abundance fitness: -0.338 ± 0.088 for the first, -0.184 ± 0.074 for the second.

Compared with “Transcriptional activator Myb P174V, P10242”, “Transcriptional activator Myb P174Y, P10242” is lower in abundance fitness: -0.127 ± 0.073 for the first, -0.643 ± 0.12 for the second.

“Transcriptional activator Myb Q157L, P10242” and “Transcriptional activator Myb Q195A, P10242” are within error of each other in abundance fitness: -0.081 ± 0.22 for the first, -0.045 ± 0.079 for the second.

“Transcriptional activator Myb Q195C, P10242” and “Transcriptional activator Myb Q195D, P10242” are within error of each other in abundance fitness: -0.043 ± 0.12 for the first, -0.19 ± 0.13 for the second.

“Transcriptional activator Myb Q195E, P10242” and “Transcriptional activator Myb Q195F, P10242” are within error of each other in abundance fitness: 0.006 ± 0.15 for the first, -0.244 ± 0.15 for the second.

“Transcriptional activator Myb Q195G, P10242” and “Transcriptional activator Myb Q195H, P10242” are within error of each other in abundance fitness: -0.074 ± 0.074 for the first, -0.269 ± 0.16 for the second.

“Transcriptional activator Myb Q195I, P10242” and “Transcriptional activator Myb Q195K, P10242” are within error of each other in abundance fitness: -0.19 ± 0.15 for the first, -0.388 ± 0.41 for the second.

“Transcriptional activator Myb Q195L, P10242” and “Transcriptional activator Myb Q195M, P10242” are within error of each other in abundance fitness: -0.057 ± 0.091 for the first, -0.199 ± 0.16 for the second.

“Transcriptional activator Myb Q195N, P10242” and “Transcriptional activator Myb Q195P, P10242” are within error of each other in abundance fitness: 0.107 ± 0.29 for the first, -0.214 ± 0.15 for the second.

“Transcriptional activator Myb Q195R, P10242” and “Transcriptional activator Myb Q195S, P10242” are within error of each other in abundance fitness: 0.091 ± 0.07 for the first, -0.054 ± 0.1 for the second.

Going from “Transcriptional activator Myb Q195V, P10242” to “Transcriptional activator Myb Q195W, P10242”, the abundance fitness falls from 0.043 ± 0.081 to -0.282 ± 0.14.

“Transcriptional activator Myb Q195Y, P10242” and “Transcriptional activator Myb Q200A, P10242” are within error of each other in abundance fitness: -0.26 ± 0.22 for the first, 0.011 ± 0.068 for the second.

“Transcriptional activator Myb Q200C, P10242” and “Transcriptional activator Myb Q200D, P10242” are within error of each other in abundance fitness: -0.18 ± 0.11 for the first, -0.139 ± 0.11 for the second.

Going from “Transcriptional activator Myb Q200E, P10242” to “Transcriptional activator Myb Q200F, P10242”, the abundance fitness falls from -0.008 ± 0.082 to -0.302 ± 0.11.

“Transcriptional activator Myb Q200G, P10242” and “Transcriptional activator Myb Q200H, P10242” are within error of each other in abundance fitness: 0.014 ± 0.049 for the first, 0.003 ± 0.13 for the second.

“Transcriptional activator Myb Q200I, P10242” and “Transcriptional activator Myb Q200K, P10242” are within error of each other in abundance fitness: -0.161 ± 0.11 for the first, 0.002 ± 0.088 for the second.

“Transcriptional activator Myb Q200L, P10242” and “Transcriptional activator Myb Q200M, P10242” are within error of each other in abundance fitness: -0.078 ± 0.067 for the first, -0.205 ± 0.088 for the second.

“Transcriptional activator Myb Q200N, P10242” and “Transcriptional activator Myb Q200P, P10242” are within error of each other in abundance fitness: 0.004 ± 0.11 for the first, 0.005 ± 0.1 for the second.

“Transcriptional activator Myb Q200R, P10242” and “Transcriptional activator Myb Q200S, P10242” are within error of each other in abundance fitness: 0.007 ± 0.048 for the first, -0.073 ± 0.06 for the second.

“Transcriptional activator Myb Q200T, P10242” and “Transcriptional activator Myb Q200V, P10242” are within error of each other in abundance fitness: -0.135 ± 0.072 for the first, -0.087 ± 0.074 for the second.

“Transcriptional activator Myb Q200W, P10242” and “Transcriptional activator Myb Q200Y, P10242” are within error of each other in abundance fitness: -0.345 ± 0.094 for the first, -0.259 ± 0.12 for the second.

Compared with “Transcriptional activator Myb R153C, P10242”, “Transcriptional activator Myb R153D, P10242” is higher in abundance fitness: -0.451 ± 0.098 for the first, -0.25 ± 0.095 for the second.

“Transcriptional activator Myb R153E, P10242” and “Transcriptional activator Myb R153F, P10242” are within error of each other in abundance fitness: -0.144 ± 0.079 for the first, -0.068 ± 0.094 for the second.

“Transcriptional activator Myb R153I, P10242” and “Transcriptional activator Myb R153L, P10242” are within error of each other in abundance fitness: -0.284 ± 0.13 for the first, -0.098 ± 0.073 for the second.

“Transcriptional activator Myb R153M, P10242” and “Transcriptional activator Myb R153N, P10242” are within error of each other in abundance fitness: -0.11 ± 0.11 for the first, 0.02 ± 0.13 for the second.

Compared with “Transcriptional activator Myb R153P, P10242”, “Transcriptional activator Myb R153Q, P10242” is higher in abundance fitness: -1.12 ± 0.18 for the first, -0.031 ± 0.092 for the second.

“Transcriptional activator Myb R153S, P10242” and “Transcriptional activator Myb R153T, P10242” are within error of each other in abundance fitness: -0.121 ± 0.06 for the first, -0.125 ± 0.14 for the second.

“Transcriptional activator Myb R153V, P10242” and “Transcriptional activator Myb R153Y, P10242” are within error of each other in abundance fitness: -0.199 ± 0.084 for the first, -0.084 ± 0.11 for the second.

“Transcriptional activator Myb R176A, P10242” and “Transcriptional activator Myb R176C, P10242” are within error of each other in abundance fitness: -0.217 ± 0.065 for the first, -0.148 ± 0.12 for the second.

“Transcriptional activator Myb R176D, P10242” and “Transcriptional activator Myb R176E, P10242” are within error of each other in abundance fitness: -0.66 ± 0.14 for the first, -0.677 ± 0.11 for the second.

“Transcriptional activator Myb R176F, P10242” and “Transcriptional activator Myb R176G, P10242” are within error of each other in abundance fitness: -0.733 ± 0.25 for the first, -0.728 ± 0.062 for the second.

“Transcriptional activator Myb R176H, P10242” and “Transcriptional activator Myb R176I, P10242” are within error of each other in abundance fitness: 0.043 ± 0.16 for the first, -0.225 ± 0.16 for the second.

First: Transcriptional activator Myb R176K, P10242
Second: Transcriptional activator Myb R176L, P10242
The abundance fitness of the first is higher: -0.022 ± 0.097 for the first, -0.423 ± 0.074 for the second.

Going from “Transcriptional activator Myb R176M, P10242” to “Transcriptional activator Myb R176N, P10242”, the abundance fitness falls from -0.584 ± 0.11 to -0.905 ± 0.2.
